# Reference: patent publication US20250019451A1 (published 2025)
# Positions count from the first letter of the chain named.
# T1: mouse CCR8 (UniProt P56484 1-353)
# T1 chain: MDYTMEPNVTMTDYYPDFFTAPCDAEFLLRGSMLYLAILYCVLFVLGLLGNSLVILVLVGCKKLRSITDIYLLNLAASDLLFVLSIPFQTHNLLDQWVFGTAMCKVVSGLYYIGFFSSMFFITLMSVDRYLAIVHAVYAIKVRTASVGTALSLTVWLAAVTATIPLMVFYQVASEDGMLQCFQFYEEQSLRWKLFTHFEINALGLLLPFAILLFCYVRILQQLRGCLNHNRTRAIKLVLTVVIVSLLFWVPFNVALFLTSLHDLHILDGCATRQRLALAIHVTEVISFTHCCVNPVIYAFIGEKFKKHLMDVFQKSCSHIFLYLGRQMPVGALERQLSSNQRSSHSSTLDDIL
# B1: HFB11-10 (antibody, V domains shown)
# VH: EVQLVETGGGLVQPKGSLKLSCAASGFRFNTNAMNWVRQAPGKDLEWVARIRSKSNNYATYYADSVKDRFTISRDDSQSMLYLQMNNVKTEDTAMYYCVRGSDNNYYYAMDYWGQGTSVTVSS
# VL: DIVMTQAAPSVPVTPGESVSISCRSSKSLLHSNGNTYLYWFLQRPGQSPQLLIYRMSNLASGVPDRFSGSGSGTAFTLRISRVEAEDVGVYYCMQHLEYPFTFGSGTKLEIK
# B2: HFB11-5 (antibody, V domains shown)
# VH: EVQLVESGGGLVQPRGSLKLSCTASGFSFNAYAMNWVRQAPGKGLEWVARIRTKSNNYATYYADSVKDRFTISRDDSESMLYLQMKNLKTEDTAMYYCVRGGYGNGGYYFDYWGQGTTLTVSS
# VL: B1 VL with P12T, V19A, S32R, T36S, M56I
# B3: HFB11-2 (antibody, V domains shown)
# VH: EVQLVESGGGLVQPKGSLKLSCAASGFSFNTYAMNWVRQAPGKGLEWVARIRSKSNNYATYYADSVKDRFTISRDDSERMLYLQMNNLKTEDTAMYYCVRGGSYYSNHYFDYWGQGTTLTVSS
# VL: B1 VL with R55Q, S105A, I111L
# B4: HFB11-3 (antibody, V domains shown)
# VH: EVQLVESGGGLVQPQGSLKLSCAASGFSFNTYAMNWVRQAPGKGLQWVARIRSKSNNYATYYADSVKDRFTISRDDSESMLYLQMNNLKTEDAAMYYCVRGKDANYFYAMDYWGQGTSVTVSS
# VL: B1 VL with S105A, I111L
# B5: HFB11-8 (antibody, V domains shown)
# VH: B1 VH with D44G, Y61H, A63V, I72V, V88L, T90A
# VL: B1 VL with A75S, A85V
# B6: HFB11-10 parental antibody (non-humanized) in ADCC enhanced format (antibody, V domains shown)
# VH: B1 VH
# VL: B1 VL
# B7: HFB11-19 (antibody, V domains shown)
# VH: QVQLQQSGAELVKPGASVKLSCKASGYTFTDYIIHWVKQRSGQGLEWIGWFSPRNNYVKYNERFTDKATLTADKSSNTVYMELSSLTSEDSAVYFCSRHGRNSIGFAYWGQGTLVTVSA
# VL: B1 VL with H31N, F101Y, S105G
# B8: HFB11-21 (antibody, V domains shown)
# VH: QVQLQQPGAELVKPGASVKLSCKASGYTFISYWMHWVKQRPGRGLEWIGRIDPNSGKTKYNEKFKTKATLTVDKSSSTAYMHLNSLTSDDSAVYYCAREGWGDYWGQGTTLTVSS
# VL: DIVLTQSPASLAVSLGQRATISCRASESVDNYGISFMHWYQQKPGQPPRLLIYRASNLASGIPARFSGSGSSTDFTLTINPVETDDIATYYCQQSNKDPRTFGGGTKLEIK
# Biological target: T2, human CCR8 (UniProt P51685 1-355)
# Assay: CCL1 blocking
row,IC50 [nM],Binder
1,0.428,B1

# Biological target: T2, human CCR8
# Assay: CCL1 blocking
# Remark: another data set of the same source
row,IC50 [nM],Binder
1,0.428,B1
2,0.413,B2
3,1.33,B3
4,1.3,B4
5,0.452,B5

# Biological target: T2, human CCR8
# Assay: FACS cell binding
row,EC50 [nM],Binder
1,0.37,B6

# Biological target: T2, human CCR8
# Assay: FACS cell binding
# Remark: another data set of the same source
row,EC50 [nM],Binder
1,0.86,B7
2,0.57,B1
3,0.49,B2
4,0.98,B3
5,1.63,B4
6,0.53,B5
7,9.05,B8

# Biological target: T1, mouse CCR8
# Assay: FACS cell binding
row,EC50 [nM],Binder
1,0.4,B3
